These are literature values, as cited in PMC6163503.

Data set [1] concerns the target Aminopeptidase N (Homo sapiens) (UniProt P15144).
Data set [2] addresses JAK2 catalytic domain (Homo sapiens) (UniProt O60674). Description: SPR. For orientation: SPR reads the build-up and loss of mass on a sensor chip optically.

Where only a bound is given, the exact number is not on record here.

Sequence of UniProt O60674 (O60674 849-1124): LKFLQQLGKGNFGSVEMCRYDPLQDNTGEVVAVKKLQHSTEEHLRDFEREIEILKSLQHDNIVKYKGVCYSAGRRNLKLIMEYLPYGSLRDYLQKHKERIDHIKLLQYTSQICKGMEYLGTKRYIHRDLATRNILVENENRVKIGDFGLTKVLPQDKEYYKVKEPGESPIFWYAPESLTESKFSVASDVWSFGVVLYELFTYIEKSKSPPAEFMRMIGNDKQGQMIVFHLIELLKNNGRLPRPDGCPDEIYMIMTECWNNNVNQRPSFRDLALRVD
Sequence of UniProt P15144 (P15144 2-967): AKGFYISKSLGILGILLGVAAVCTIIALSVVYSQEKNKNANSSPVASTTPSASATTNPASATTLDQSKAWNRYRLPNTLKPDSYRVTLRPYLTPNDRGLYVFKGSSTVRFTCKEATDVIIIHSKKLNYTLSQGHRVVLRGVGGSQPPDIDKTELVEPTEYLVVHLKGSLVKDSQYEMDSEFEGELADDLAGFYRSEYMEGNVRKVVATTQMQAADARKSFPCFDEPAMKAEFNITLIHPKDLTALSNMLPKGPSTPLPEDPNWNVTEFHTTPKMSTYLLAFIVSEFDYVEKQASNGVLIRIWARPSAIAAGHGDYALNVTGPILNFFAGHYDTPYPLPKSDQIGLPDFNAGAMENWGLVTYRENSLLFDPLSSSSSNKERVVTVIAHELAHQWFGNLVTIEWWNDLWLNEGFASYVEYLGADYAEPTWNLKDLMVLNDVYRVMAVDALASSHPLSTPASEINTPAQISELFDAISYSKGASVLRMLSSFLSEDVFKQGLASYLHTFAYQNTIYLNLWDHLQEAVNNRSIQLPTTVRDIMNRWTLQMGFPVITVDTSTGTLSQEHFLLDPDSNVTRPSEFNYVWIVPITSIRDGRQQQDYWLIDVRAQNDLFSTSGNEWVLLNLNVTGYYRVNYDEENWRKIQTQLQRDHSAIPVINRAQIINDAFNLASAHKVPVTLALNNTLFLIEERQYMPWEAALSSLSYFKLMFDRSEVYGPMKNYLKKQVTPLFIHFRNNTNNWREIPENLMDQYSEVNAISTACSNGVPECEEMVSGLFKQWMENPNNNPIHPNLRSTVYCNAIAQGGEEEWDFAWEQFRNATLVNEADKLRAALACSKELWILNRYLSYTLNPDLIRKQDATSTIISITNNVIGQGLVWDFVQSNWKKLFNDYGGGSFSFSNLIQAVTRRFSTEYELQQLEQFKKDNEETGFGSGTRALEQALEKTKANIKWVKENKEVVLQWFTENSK

On to cyc-LHSPW, for which, in data set [1], the Ki (commonly the dissociation constant of the complex between target and ligand, obtained from inhibition or displacement) was 24.7 µM.
Regarding “SOCS3 KIRESS peptide KIRESS (from UniProt O14543)”, the Kd – broadly, the free concentration of one partner at which half of the binding sites on the other are occupied at equilibrium, for simple one-to-one binding – in data set [2] is 1.86 µM.
In the case of “SOCS3 ESS peptide ESS (from UniProt O14543)”, in data set [2], the Kd is over 1000 µM.
Take “SOCS3 KIR peptide KIR (from UniProt O14543)”: the Kd in data set [2] was 2.03 µM.
